Experimental data taken from article PMC2756588.

Each binder was assayed against T1, Bbc1, P47068 (assay: SPOT array). Details: median of control spots 796.
T1 sequence (P47068 1-78, looked up): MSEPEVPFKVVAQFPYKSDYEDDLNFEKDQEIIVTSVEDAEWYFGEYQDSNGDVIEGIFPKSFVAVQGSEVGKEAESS

Binder	SPOT intensity
GDHPKGPPPPPPPDE	1
DHPKGPPPPPPPDEK	0
TPRLSLPRLPNKHHW	2

What follows are binders tested against T2, Cdc25, P04821 (assay: SPOT array). Details: median of control spots 969.
T2 sequence (P04821 50-136, looked up): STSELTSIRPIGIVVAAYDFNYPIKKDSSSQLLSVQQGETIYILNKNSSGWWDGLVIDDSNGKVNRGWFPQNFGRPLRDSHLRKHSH

Binder	SPOT intensity
GDHPKGPPPPPPPDE	3
DHPKGPPPPPPPDEK	6
TPRLSLPRLPNKHHW	10

Each binder was assayed against T3, Fus1, P11710 (assay: SPOT array). Details: median of control spots 1200.
T3 sequence (P11710 432-512, looked up): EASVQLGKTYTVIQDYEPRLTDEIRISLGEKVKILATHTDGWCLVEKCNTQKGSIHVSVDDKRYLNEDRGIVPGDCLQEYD

Binder	SPOT intensity
GDHPKGPPPPPPPDE	0
DHPKGPPPPPPPDEK	0
TPRLSLPRLPNKHHW	0

Each binder was assayed against T4, Lsb1, P53281 (assay: SPOT array). Details: median of control spots 388.
T4 sequence (P53281 45-122, looked up): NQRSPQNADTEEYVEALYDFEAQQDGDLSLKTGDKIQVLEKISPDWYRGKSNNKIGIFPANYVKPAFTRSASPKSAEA

Binder	SPOT intensity
GDHPKGPPPPPPPDE	0
DHPKGPPPPPPPDEK	0
TPRLSLPRLPNKHHW	0

The binders below were run against T5, Pex13, P80667 (assay: SPOT array). Details: median of control spots 1341.
T5 sequence (P80667 295-386, looked up): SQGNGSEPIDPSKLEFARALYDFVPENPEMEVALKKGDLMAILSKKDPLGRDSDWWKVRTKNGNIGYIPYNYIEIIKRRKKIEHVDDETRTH

Binder	SPOT intensity
GDHPKGPPPPPPPDE	0
DHPKGPPPPPPPDEK	0
TPRLSLPRLPNKHHW	45

Each binder was assayed against T6, Pin3, Q06449 (assay: SPOT array). Details: median of control spots 2171.
T6 sequence (Q06449 53-122, looked up): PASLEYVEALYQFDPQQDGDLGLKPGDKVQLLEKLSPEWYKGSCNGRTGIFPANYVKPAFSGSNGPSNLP

Binder	SPOT intensity
GDHPKGPPPPPPPDE	2
DHPKGPPPPPPPDEK	6
TPRLSLPRLPNKHHW	7

Each binder was assayed against Bem1-1, P29366 (assay: SPOT array). Details: median of control spots 4282.
Chain of Bem1-1, P29366 (P29366 55-141): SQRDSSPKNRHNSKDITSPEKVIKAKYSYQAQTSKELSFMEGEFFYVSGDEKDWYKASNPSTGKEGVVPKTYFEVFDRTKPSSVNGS

Binder	SPOT intensity
GDHPKGPPPPPPPDE	0
DHPKGPPPPPPPDEK	8
TPRLSLPRLPNKHHW	0

The binders below were run against T7, Bud14, P27637 (assay: SPOT array). Details: median of control spots 956.
T7 sequence (P27637 247-328, looked up): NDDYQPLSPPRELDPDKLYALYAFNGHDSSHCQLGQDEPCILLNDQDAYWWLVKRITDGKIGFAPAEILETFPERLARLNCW

Binder	SPOT intensity
GDHPKGPPPPPPPDE	1
DHPKGPPPPPPPDEK	1
TPRLSLPRLPNKHHW	9

The binders below were run against T8, Cyk3, Q07533 (assay: SPOT array). Details: median of control spots 1451.
T8 sequence (Q07533 1-83, looked up): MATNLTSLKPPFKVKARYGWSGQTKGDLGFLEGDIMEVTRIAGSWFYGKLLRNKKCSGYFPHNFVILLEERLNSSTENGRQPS

Binder	SPOT intensity
GDHPKGPPPPPPPDE	0
DHPKGPPPPPPPDEK	0
TPRLSLPRLPNKHHW	0

Each binder was assayed against T9, Abp1, P15891 (assay: SPOT array). Details: median of control spots 935.
T9 sequence (P15891 535-592, looked up): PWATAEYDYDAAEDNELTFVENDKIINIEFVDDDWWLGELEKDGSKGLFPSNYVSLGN

Binder	SPOT intensity
GDHPKGPPPPPPPDE	0
DHPKGPPPPPPPDEK	0
TPRLSLPRLPNKHHW	37

Each binder was assayed against T10, Bzz1-1, P38822 (assay: SPOT array). Details: median of control spots 4446.
T10 sequence (P38822 478-572, looked up): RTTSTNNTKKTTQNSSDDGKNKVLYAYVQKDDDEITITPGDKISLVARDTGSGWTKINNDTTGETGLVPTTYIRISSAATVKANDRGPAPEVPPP

Binder	SPOT intensity
GDHPKGPPPPPPPDE	1
DHPKGPPPPPPPDEK	72
TPRLSLPRLPNKHHW	0

What follows are binders tested against T11, Lsb4, P32793 (assay: SPOT array). Details: median of control spots 397.
T11 sequence (P32793 402-468, looked up): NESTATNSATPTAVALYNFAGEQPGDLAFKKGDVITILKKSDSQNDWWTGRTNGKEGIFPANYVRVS

Binder	SPOT intensity
GDHPKGPPPPPPPDE	0
DHPKGPPPPPPPDEK	0
TPRLSLPRLPNKHHW	0

The binders below were run against T12, Boi2, P39969 (assay: SPOT array). Details: median of control spots 1161.
T12 sequence (P39969 32-116, looked up): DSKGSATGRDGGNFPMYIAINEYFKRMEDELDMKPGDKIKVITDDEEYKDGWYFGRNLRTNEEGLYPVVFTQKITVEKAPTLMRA

Binder	SPOT intensity
GDHPKGPPPPPPPDE	1
DHPKGPPPPPPPDEK	0
TPRLSLPRLPNKHHW	0

Each binder was assayed against T13, Nbp2, Q12163 (assay: SPOT array). Details: median of control spots 357.
T13 sequence (Q12163 103-180, looked up): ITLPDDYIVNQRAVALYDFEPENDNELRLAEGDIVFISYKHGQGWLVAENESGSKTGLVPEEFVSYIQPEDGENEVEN

Binder	SPOT intensity
GDHPKGPPPPPPPDE	0
DHPKGPPPPPPPDEK	1
TPRLSLPRLPNKHHW	0

Each binder was assayed against T14, Sla1-3, P32790 (assay: SPOT array). Details: median of control spots 5475.
T14 sequence (P32790 344-424, looked up): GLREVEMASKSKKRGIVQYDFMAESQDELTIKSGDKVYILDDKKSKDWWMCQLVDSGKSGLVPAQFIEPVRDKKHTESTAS

Binder	SPOT intensity
GDHPKGPPPPPPPDE	2
DHPKGPPPPPPPDEK	12
TPRLSLPRLPNKHHW	0

What follows are binders tested against T15, Sla1-2, P32790 (assay: SPOT array). Details: median of control spots 712.
T15 sequence (P32790 60-140, looked up): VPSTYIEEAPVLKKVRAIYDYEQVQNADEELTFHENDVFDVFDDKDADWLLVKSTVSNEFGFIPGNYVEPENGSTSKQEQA

Binder	SPOT intensity
GDHPKGPPPPPPPDE	0
DHPKGPPPPPPPDEK	0
TPRLSLPRLPNKHHW	0

What follows are binders tested against T16, Myo5, Q04439 (assay: SPOT array). Details: median of control spots 471.
T16 sequence (Q04439 1072-1160, looked up): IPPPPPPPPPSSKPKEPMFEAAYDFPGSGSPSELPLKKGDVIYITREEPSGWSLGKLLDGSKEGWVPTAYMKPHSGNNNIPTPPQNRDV

Binder	SPOT intensity
GDHPKGPPPPPPPDE	227
DHPKGPPPPPPPDEK	298
TPRLSLPRLPNKHHW	0

These binders were tested against GST (assay: SPOT array). Details: median of control spots 978.

Binder	SPOT intensity
GDHPKGPPPPPPPDE	0
DHPKGPPPPPPPDEK	0
TPRLSLPRLPNKHHW	0

What follows are binders tested against T17, Bzz1-2, P38822 (assay: SPOT array). Details: median of control spots 4538.
T17 sequence (P38822 568-633, looked up): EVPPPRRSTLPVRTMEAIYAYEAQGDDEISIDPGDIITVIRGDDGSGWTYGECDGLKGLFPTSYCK

Binder	SPOT intensity
GDHPKGPPPPPPPDE	0
DHPKGPPPPPPPDEK	12
TPRLSLPRLPNKHHW	1

What follows are binders tested against T18, Hse1, P38753 (assay: SPOT array). Details: median of control spots 1727.
T18 sequence (P38753 208-285, looked up): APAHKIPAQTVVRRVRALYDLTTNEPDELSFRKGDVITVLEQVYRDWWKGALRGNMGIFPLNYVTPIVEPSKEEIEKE

Binder	SPOT intensity
GDHPKGPPPPPPPDE	0
DHPKGPPPPPPPDEK	0
TPRLSLPRLPNKHHW	30

What follows are binders tested against Bem1-2, P29366 (assay: SPOT array). Details: median of control spots 4347.
Chain of Bem1-2, P29366 (P29366 139-227): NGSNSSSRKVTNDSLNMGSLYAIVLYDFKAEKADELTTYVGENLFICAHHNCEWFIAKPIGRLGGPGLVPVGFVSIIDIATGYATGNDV

Binder	SPOT intensity
GDHPKGPPPPPPPDE	3
DHPKGPPPPPPPDEK	0
TPRLSLPRLPNKHHW	3

The binders below were run against T19, Lsb3, P43603 (assay: SPOT array). Details: median of control spots 406.
T19 sequence (P43603 385-451, looked up): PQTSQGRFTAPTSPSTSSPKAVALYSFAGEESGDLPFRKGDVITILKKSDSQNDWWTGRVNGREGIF

Binder	SPOT intensity
GDHPKGPPPPPPPDE	0
DHPKGPPPPPPPDEK	0
TPRLSLPRLPNKHHW	0

These binders were tested against T20, Hof1, Q05080 (assay: SPOT array). Details: median of control spots 4086.
T20 sequence (Q05080 590-669, looked up): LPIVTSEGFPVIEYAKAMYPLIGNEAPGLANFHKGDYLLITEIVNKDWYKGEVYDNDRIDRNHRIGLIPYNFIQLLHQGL

Binder	SPOT intensity
GDHPKGPPPPPPPDE	0
DHPKGPPPPPPPDEK	2
TPRLSLPRLPNKHHW	1600

What follows are binders tested against Myo3, P36006 (assay: SPOT array). Details: median of control spots 468.

Binder	SPOT intensity
GDHPKGPPPPPPPDE	371
DHPKGPPPPPPPDEK	431
TPRLSLPRLPNKHHW	0

The binders below were run against T21, Boi1, P38041 (assay: SPOT array). Details: median of control spots 1162.
T21 sequence (P38041 1-86, looked up): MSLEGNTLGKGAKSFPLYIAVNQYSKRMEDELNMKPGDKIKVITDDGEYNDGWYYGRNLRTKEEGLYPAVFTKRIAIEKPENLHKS

Binder	SPOT intensity
GDHPKGPPPPPPPDE	4
DHPKGPPPPPPPDEK	0
TPRLSLPRLPNKHHW	4

The binders below were run against Sho1, P40073 (assay: SPOT array). Details: median of control spots 1148.
Chain of Sho1, P40073 (P40073 287-367): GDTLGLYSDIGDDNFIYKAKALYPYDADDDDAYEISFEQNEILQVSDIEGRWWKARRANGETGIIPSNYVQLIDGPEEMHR

Binder	SPOT intensity
GDHPKGPPPPPPPDE	0
DHPKGPPPPPPPDEK	0
TPRLSLPRLPNKHHW	35

Each binder was assayed against Rvs167, P39743 (assay: SPOT array). Details: median of control spots 2707.
Chain of Rvs167, P39743 (P39743 419-482): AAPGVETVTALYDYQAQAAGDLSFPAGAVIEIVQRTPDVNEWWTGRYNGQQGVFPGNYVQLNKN

Binder	SPOT intensity
GDHPKGPPPPPPPDE	0
DHPKGPPPPPPPDEK	0
TPRLSLPRLPNKHHW	2
